The record followed here is the supplement of paper PMC10126150.

± gives the standard deviation of the averaged measurements.

This data set has as its system ATP. The data set is described as follows: switch fluorescence ratio, 500 uM ATP over buffer (Cy3 cluster intensity, sum of 5 cycles each) (fold (ratio)); higher = stronger signal-on switching upon ATP binding; sequences stand for … in TCGTCGGCAGCGTCAGATGTGTATAAGAGACAGTTTTTTTTTTTTTTTTTTTTTTTTT…TC. As to conditions: aptamer strand: ATP DNA aptamer (quencher-CACCTGGGGGAGTATTGCGGAGGAAGG + anchor), 100 nM annealed; ATP concentration: 500 uM. The method in brief:
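Per cluster, summed Cy3 intensity from the target cycles was divided by that from the buffer cycles to give the fluorescence ratio, then averaged per switch-domain sequence. Clusters outside 100-1000 RFU were excluded. The Cy3-labelled switching-strand clusters, on a modified Illumina MiSeq flow-cell, were annealed to 100 nM quencher-labelled ATP aptamer and imaged in selection buffer, then after 15 min with 500 uM ATP at 22 °C, for five cycles with NaOH stripping and re-annealing between them.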
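Also: ATP exposure 15 min at 22 °C before imaging.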

As to CGGGACTGTT, the switch fluorescence ratio worked out at 1.02 ± 0.059.

For the sequence ACTAGTCGGA, the switch fluorescence ratio was determined as 1.03 ± 0.028.

With AGTATTCTTA, the switch fluorescence ratio is 0.99324 ± 0.00072.

Turning to CTCTGGGCTT, the switch fluorescence ratio stood at 0.99826 ± 8.3e-05.

As to TTGGAGTTCG, the switch fluorescence ratio is 0.982 ± 0.013.

With GGCCTAGGCT, the switch fluorescence ratio was found to be 1.02 ± 0.013.

Regarding GCAGTGGGGG, the switch fluorescence ratio is 1 ± 0.08.

Consider TTGCAAGCGG, for which the switch fluorescence ratio is 0.995 ± 0.011.

In the case of ACGGCTTTTG, the switch fluorescence ratio was 1.025 ± 0.009.

With AAGGGTAAGT, the switch fluorescence ratio is 1.005 ± 0.0023.

CCTGAGGAGG: the switch fluorescence ratio was 0.997 ± 0.014.

With TGGGGGTTG, the switch fluorescence ratio came out at 1 ± 0.032.

On to TCCCAATGCT, for which the switch fluorescence ratio amounted to 4.02 ± 0.55.

On to AGCTTAAGAC, for which the switch fluorescence ratio was 1.36 ± 0.041.

Consider GGAATGACGG, for which the switch fluorescence ratio came to 1.012 ± 0.0024.

For GAGCTTGCGT, the switch fluorescence ratio is 1.01 ± 0.025.

For the sequence TGGTTACGTC, the switch fluorescence ratio came to 0.985 ± 0.026.

For CCAGGGAGGG, the switch fluorescence ratio stood at 1.06 ± 0.051.

As for ATGGGCGGCG, the switch fluorescence ratio came to 0.993 ± 0.021.

On to AACTGGAACT, for which the switch fluorescence ratio amounted to 1.03 ± 0.032.

Turning to TAAAGAGGTA, the switch fluorescence ratio turned out to be 1.02 ± 0.013.

In the case of GGTTAGCGTC, the switch fluorescence ratio was found to be 1.03 ± 0.059.

As for TAGGCTGGGT, the switch fluorescence ratio is 0.992 ± 0.014.

Take CTGTTAGGGA: the switch fluorescence ratio is 0.958 ± 0.03.

With GGAGGGTTTG, the switch fluorescence ratio is 0.992 ± 0.034.

In the case of ATGATTTGGC, the switch fluorescence ratio is 1.04 ± 0.048.

Turning to GTGACCGTGT, the switch fluorescence ratio came to 1 ± 0.053.

Consider CGGTTACATT, for which the switch fluorescence ratio turned out to be 1 ± 0.014.

With CGCATCAACG, the switch fluorescence ratio was determined as 1.18 ± 0.087.

With GATGTAATTG, the switch fluorescence ratio came to 0.9822 ± 0.0094.

On to ACGGGGCTGT, for which the switch fluorescence ratio was 0.996 ± 0.017.

In the case of TTCATTTTTG, the switch fluorescence ratio came to 0.998 ± 0.044.

Turning to GTTGTGTGTT, the switch fluorescence ratio is 0.975 ± 0.016.

Consider CGGACATGGA, for which the switch fluorescence ratio came out at 1.011 ± 0.0084.

Regarding AGGACAGTCG, the switch fluorescence ratio was 0.929 ± 0.045.

Regarding ACCGTGGGTC, the switch fluorescence ratio was determined as 1.02 ± 0.029.

GAGCGTCTGG: the switch fluorescence ratio was 1.02 ± 0.011.

In the case of CTCGGCTGCG, the switch fluorescence ratio amounted to 0.969 ± 0.084.

TGGAATTTAA: the switch fluorescence ratio stood at 0.984 ± 0.017.

With TCGTTGAGGC, the switch fluorescence ratio turned out to be 1.037 ± 0.0072.

Regarding TTTGGGAAGT, the switch fluorescence ratio worked out at 1 ± 0.025.

As to TCATGTTCGT, the switch fluorescence ratio is 1.08 ± 0.15.

As for CGGTGACTTG, the switch fluorescence ratio is 1.01 ± 0.017.

Regarding TTTGTGGGTG, the switch fluorescence ratio was determined as 1.01 ± 0.019.

For ATTTTCGACA, the switch fluorescence ratio is 1.022 ± 0.0028.

In the case of GTGGTACACG, the switch fluorescence ratio amounted to 1.01 ± 0.026.

Regarding TGCTAGGGGC, the switch fluorescence ratio stood at 1.07 ± 0.036.

Turning to GGCTTTGTAG, the switch fluorescence ratio was 0.9956 ± 0.0081.

Consider ACGAATGCGG, for which the switch fluorescence ratio amounted to 0.941 ± 0.042.

Take TATATACGTT: the switch fluorescence ratio came out at 1.04 ± 0.026.

As for AACGTAGTTT, the switch fluorescence ratio is 1.02 ± 0.029.

Turning to CATAACGCCT, the switch fluorescence ratio came to 1.09 ± 0.027.

As for CACCTCGGAC, the switch fluorescence ratio stood at 1.139 ± 0.0092.

Turning to TGAGGTTAGG, the switch fluorescence ratio amounted to 1 ± 0.012.

For the sequence TGGGGGGGAT, the switch fluorescence ratio worked out at 0.993 ± 0.026.

In the case of TTGGGCTGCT, the switch fluorescence ratio came to 0.9743 ± 0.00051.

AACCCGGGAA: the switch fluorescence ratio was determined as 0.995 ± 0.042.

In the case of AGATGTGACG, the switch fluorescence ratio is 0.9686 ± 0.0087.

For TGAGCGGTAG, the switch fluorescence ratio stood at 1.028 ± 0.004.

As for AACAAGGGCT, the switch fluorescence ratio was 1.04 ± 0.014.

ACGAGGTTGT: the switch fluorescence ratio stood at 0.982 ± 0.025.

Turning to CATTTTTACG, the switch fluorescence ratio amounted to 1.01 ± 0.026.

For the sequence ATGTGGGTTA, the switch fluorescence ratio amounted to 1.01 ± 0.022.

Consider AGGTTCCTGT, for which the switch fluorescence ratio was found to be 0.9944 ± 0.0091.

As to TTATTATGGC, the switch fluorescence ratio turned out to be 0.993 ± 0.05.

GTCATTGGGT: the switch fluorescence ratio was 0.99 ± 0.021.
